Measurements from patent US20230357395A1.

Biological target: NKp30 (species and construct not stated) (UniProt O14931)
Assay: ELISA
Conditions: ligand

NKp30 (species and construct not stated), sequence (O14931 19-135): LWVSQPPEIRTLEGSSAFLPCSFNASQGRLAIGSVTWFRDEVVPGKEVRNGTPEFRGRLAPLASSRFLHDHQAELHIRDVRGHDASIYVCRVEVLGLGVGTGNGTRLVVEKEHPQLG
B7-H6, sequence (Q68D85 25-262): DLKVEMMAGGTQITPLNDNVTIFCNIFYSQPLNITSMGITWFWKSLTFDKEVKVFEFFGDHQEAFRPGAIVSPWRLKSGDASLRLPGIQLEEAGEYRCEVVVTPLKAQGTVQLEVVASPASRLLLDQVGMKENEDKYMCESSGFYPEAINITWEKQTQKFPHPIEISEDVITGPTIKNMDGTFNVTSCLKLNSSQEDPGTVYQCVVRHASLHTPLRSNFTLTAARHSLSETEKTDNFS

- Kd: 6.56 nM
Substance: B7-H6 (from UniProt Q68D85 25-262)
